This data set concerns the target T1, SigW sigma4 domain (σW4) (Bacillus subtilis 168, UniProt Q45585 126-187).
T1 sequence: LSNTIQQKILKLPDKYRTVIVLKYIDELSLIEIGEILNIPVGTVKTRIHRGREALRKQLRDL
Description: X-ray crystallography (3.1 Å); 1:1 complex, DNA mixed at 1.1:1; printed Kd 1.47e-8 M is computed from PISA ΔG, not measured, so not taken; Complex dialysed in 20 mM HEPES pH 7.5, 0.2 M NaCl, 5% glycerol; crystals from PEG1500 and isopropanol; temperature not stated. The settings on record: protein: recombinant; tags: N-terminal 6xHis, removed with TEV protease; 5' overhang 1 nt at each end, 11 bp.

B1: -35W (SigW -35 promoter element) (dsDNA)
DNA 1: ATTGAAACCTTT
DNA 2: AAAAGGTTTCAA
For the molecule B1, the binding result was “binds”.
